“And” between values parts separate entries of the source, which are not always exact repeats. Equal values may be shown once.
T1: SUMO-tagged ScMet18 I973A (S. cerevisiae, UniProt P40469 1-1032, I973A)
T1 construct: Met18, S. cerevisiae; substitution in HEAT-repeat 22; source: E. coli Rosetta2(DE3), purified (Ni-NTA, gel filtration); not shown: His, N-terminal, kept; SUMO, N-terminal, kept
T1 sequence: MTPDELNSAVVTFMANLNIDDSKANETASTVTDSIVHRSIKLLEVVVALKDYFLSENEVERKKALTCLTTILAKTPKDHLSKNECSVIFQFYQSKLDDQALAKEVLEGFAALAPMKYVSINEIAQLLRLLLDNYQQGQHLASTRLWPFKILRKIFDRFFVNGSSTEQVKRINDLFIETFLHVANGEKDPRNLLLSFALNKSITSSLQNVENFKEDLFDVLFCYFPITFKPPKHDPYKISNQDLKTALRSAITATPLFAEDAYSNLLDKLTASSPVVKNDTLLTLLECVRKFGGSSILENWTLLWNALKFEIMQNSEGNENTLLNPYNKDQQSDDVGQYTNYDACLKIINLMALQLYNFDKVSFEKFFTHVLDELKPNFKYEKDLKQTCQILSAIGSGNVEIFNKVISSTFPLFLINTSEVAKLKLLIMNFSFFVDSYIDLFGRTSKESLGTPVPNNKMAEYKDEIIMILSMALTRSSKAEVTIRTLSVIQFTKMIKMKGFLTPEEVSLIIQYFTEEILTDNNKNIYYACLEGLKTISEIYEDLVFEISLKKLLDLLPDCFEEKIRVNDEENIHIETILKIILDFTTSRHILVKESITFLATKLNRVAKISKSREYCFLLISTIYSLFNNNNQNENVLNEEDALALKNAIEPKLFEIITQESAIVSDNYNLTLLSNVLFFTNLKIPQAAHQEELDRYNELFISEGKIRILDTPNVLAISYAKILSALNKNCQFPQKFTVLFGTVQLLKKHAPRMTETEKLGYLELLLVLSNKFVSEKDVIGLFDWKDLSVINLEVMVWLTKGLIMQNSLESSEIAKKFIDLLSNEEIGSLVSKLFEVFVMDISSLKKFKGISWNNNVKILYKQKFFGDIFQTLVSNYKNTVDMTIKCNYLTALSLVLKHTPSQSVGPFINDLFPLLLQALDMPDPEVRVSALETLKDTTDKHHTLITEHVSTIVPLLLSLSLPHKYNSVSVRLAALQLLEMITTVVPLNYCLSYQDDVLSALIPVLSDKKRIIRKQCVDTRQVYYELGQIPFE

B1: SUMO-tagged ScMet18, wild type (N-terminal His-tag followed by SUMO solubility tag) (natural protein, S. cerevisiae)
chain: MTPDELNSAVVTFMANLNIDDSKANETASTVTDSIVHRSIKLLEVVVALKDYFLSENEVERKKALTCLTTILAKTPKDHLSKNECSVIFQFYQSKLDDQALAKEVLEGFAALAPMKYVSINEIAQLLRLLLDNYQQGQHLASTRLWPFKILRKIFDRFFVNGSSTEQVKRINDLFIETFLHVANGEKDPRNLLLSFALNKSITSSLQNVENFKEDLFDVLFCYFPITFKPPKHDPYKISNQDLKTALRSAITATPLFAEDAYSNLLDKLTASSPVVKNDTLLTLLECVRKFGGSSILENWTLLWNALKFEIMQNSEGNENTLLNPYNKDQQSDDVGQYTNYDACLKIINLMALQLYNFDKVSFEKFFTHVLDELKPNFKYEKDLKQTCQILSAIGSGNVEIFNKVISSTFPLFLINTSEVAKLKLLIMNFSFFVDSYIDLFGRTSKESLGTPVPNNKMAEYKDEIIMILSMALTRSSKAEVTIRTLSVIQFTKMIKMKGFLTPEEVSLIIQYFTEEILTDNNKNIYYACLEGLKTISEIYEDLVFEISLKKLLDLLPDCFEEKIRVNDEENIHIETILKIILDFTTSRHILVKESITFLATKLNRVAKISKSREYCFLLISTIYSLFNNNNQNENVLNEEDALALKNAIEPKLFEIITQESAIVSDNYNLTLLSNVLFFTNLKIPQAAHQEELDRYNELFISEGKIRILDTPNVLAISYAKILSALNKNCQFPQKFTVLFGTVQLLKKHAPRMTETEKLGYLELLLVLSNKFVSEKDVIGLFDWKDLSVINLEVMVWLTKGLIMQNSLESSEIAKKFIDLLSNEEIGSLVSKLFEVFVMDISSLKKFKGISWNNNVKILYKQKFFGDIFQTLVSNYKNTVDMTIKCNYLTALSLVLKHTPSQSVGPFINDLFPLLLQALDMPDPEVRVSALETLKDTTDKHHTLITEHVSTIVPLLLSLSLPHKYNSVSVRLIALQLLEMITTVVPLNYCLSYQDDVLSALIPVLSDKKRIIRKQCVDTRQVYYELGQIPFE
notes: Met18, S. cerevisiae; Met18 gene amplified from genomic DNA; 131 kDa with the tag; also called SUMOMet18; SUMOScMet18; source: E. coli Rosetta2(DE3), purified (Ni-NTA, gel filtration); not shown: His, N-terminal, kept; SUMO, N-terminal, kept

Experiments:
[1] = target: T1, SUMO-tagged ScMet18 I973A; assay: pull-down; as the ScCia2 bait pull-down, but ScLeu1 and ScCia1 included in addition to the SUMO-tagged ScMet18 variant and the strep-tagged ScCia2 bait; Strep-Tactin XT resin; SDS-PAGE; conditions: both partners purified
[2] = target: B1; assay: as above; conditions: both partners purified
[3] = target: the molecule itself; assay: cryo-EM structure; chameleon-prepared grids; untagged ScMet18 at 2 µg/µL (15 µM) in 50 mM Tris pH 8.0, 100 mM NaCl, 1% glycerol, 1 mM BME; 24 °C
[4] = target: the molecule itself; assay: mass photometry; ScMet18 alone (SUMO-tagged or untagged) at 0.050 µM in 50 mM Tris pH 8.0, 100 mM NaCl, 1% glycerol, 5 mM BME
[5] = target: the molecule itself; assay: cryo-EM structure; Vitrobot-plunged grids; untagged ScMet18 at 1.2 mg/mL (9 µM) in 50 mM HEPES pH 7.5, 100 mM NaCl, 1% glycerol, 1 mM BME, 33 mM sodium acetate; 10 °C; D3 symmetry

Binder	binding result [1]	binding result [2]	stoichiometry N [3]	stoichiometry N [4]	stoichiometry N [5]
ScLeu1 with N-terminal His tag (natural protein, S. cerevisiae, UniProt P07264 1-779, looked up, Leu1, isopropylmalate isomerase, S. cerevisiae; also called HisLeu1; source: purified) MVYTPSKGPRTLYDKVFDAHVVHQDENGSFLLYIDRHLVHEVTSPQAFEGLENAGRKVRRVDCTLATVDHNIPTESRKNFKSLDTFIKQTDSRLQVKTLENNVKQFGVPYFGMSDARQGIVHTIGPEEGFTLPGTTVVCGDSHTSTHGAFGSLAFGIGTSEVEHVLATQTIIQAKSKNMRITVNGKLSPGITSKDLILYIIGLIGTAGGTGCVIEFAGEAIEALSMEARMSMCNMAIEAGARAGMIKPDETTFQYTKGRPLAPKGAEWEKAVAYWKTLKTDEGAKFDHEINIEAVDVIPTITWGTSPQDALPITGSVPDPKNVTDPIKKSGMERALAYMGLEPNTPLKSIKVDKVFIGSCTNGRIEDLRSAAAVVRGQKLASNIKLAMVVPGSGLVKKQAEAEGLDKIFQEAGFEWREAGCSICLGMNPDILDAYERCASTSNRNFEGRQGALSRTHLMSPAMAAAAGIAGHFVDIREFEYKDQDQSSPKVEVTSEDEKELESAAYDHAEPVQPEDAPQDIANDELKDIPVKSDDTPAKPSSSGMKPFLTLEGISAPLDKANVDTDAIIPKQFLKTIKRTGLKKGLFYEWRFRKDDQGKDQETDFVLNVEPWREAEILVVTGDNFGCGSSREHAPWALKDFGIKSIIAPSYGDIFYNNSFKNGLLPIRLDQQIIIDKLIPIANKGGKLCVDLPNQKILDSDGNVLVDHFEIEPFRKHCLVNGLDDIGITLQKEEYISRYEALRREKYSFLEGGSKLLKFDNVPKRKAVTTTFDKVHQDW	binds	binds	–	–	–
untagged ScMet18 (S. cerevisiae Met18, His-SUMO tag removed by SUMO protease) (natural protein, Met18 (MMS19 in humans), S. cerevisiae; Met18 gene amplified from genomic DNA; 118 kDa; model holds residues 9-225, 242-314 and 338-1029; Mixture of monomers, dimers, tetramers and hexamers in solution; hexamer and tetramer by cryo-EM; also called SUMO-cleaved ScMet18; source: E. coli Rosetta2(DE3), purified (Ni-NTA, gel filtration; tag cut with SUMO protease, Ni-NTA flow through); not shown: …) MTPDELNSAVVTFMANLNIDDSKANETASTVTDSIVHRSIKLLEVVVALKDYFLSENEVERKKALTCLTTILAKTPKDHLSKNECSVIFQFYQSKLDDQALAKEVLEGFAALAPMKYVSINEIAQLLRLLLDNYQQGQHLASTRLWPFKILRKIFDRFFVNGSSTEQVKRINDLFIETFLHVANGEKDPRNLLLSFALNKSITSSLQNVENFKEDLFDVLFCYFPITFKPPKHDPYKISNQDLKTALRSAITATPLFAEDAYSNLLDKLTASSPVVKNDTLLTLLECVRKFGGSSILENWTLLWNALKFEIMQNSEGNENTLLNPYNKDQQSDDVGQYTNYDACLKIINLMALQLYNFDKVSFEKFFTHVLDELKPNFKYEKDLKQTCQILSAIGSGNVEIFNKVISSTFPLFLINTSEVAKLKLLIMNFSFFVDSYIDLFGRTSKESLGTPVPNNKMAEYKDEIIMILSMALTRSSKAEVTIRTLSVIQFTKMIKMKGFLTPEEVSLIIQYFTEEILTDNNKNIYYACLEGLKTISEIYEDLVFEISLKKLLDLLPDCFEEKIRVNDEENIHIETILKIILDFTTSRHILVKESITFLATKLNRVAKISKSREYCFLLISTIYSLFNNNNQNENVLNEEDALALKNAIEPKLFEIITQESAIVSDNYNLTLLSNVLFFTNLKIPQAAHQEELDRYNELFISEGKIRILDTPNVLAISYAKILSALNKNCQFPQKFTVLFGTVQLLKKHAPRMTETEKLGYLELLLVLSNKFVSEKDVIGLFDWKDLSVINLEVMVWLTKGLIMQNSLESSEIAKKFIDLLSNEEIGSLVSKLFEVFVMDISSLKKFKGISWNNNVKILYKQKFFGDIFQTLVSNYKNTVDMTIKCNYLTALSLVLKHTPSQSVGPFINDLFPLLLQALDMPDPEVRVSALETLKDTTDKHHTLITEHVSTIVPLLLSLSLPHKYNSVSVRLIALQLLEMITTVVPLNYCLSYQDDVLSALIPVLSDKKRIIRKQCVDTRQVYYELGQIPFE	–	–	6 and 4	2	6
B1	–	–	–	2 and 4 and 6	–

— publication PMC10728100, “Structural and biochemical investigations of a HEAT-repeat protein involved in the cytosolic iron-sulfur cluster assembly pathway” (Communications Biology, 2023)
